pEC50, pKd: −log10 of the molar value.

Two substances from publication PMC12098740 can be followed below.

For one experiment, the target named is Cinpanemab (BIIB-054). The experiment in a line: SPR.
The target of experiment [1] is α-syn aggregates of PD patient brain (Homo sapiens (Human).) (UniProt P37840). Kind of experiment: ELISA.
Experiment [2] concerns the target α-syn aggregates of MSA patient brain (Homo sapiens (Human).) (UniProt P37840). The experiment in a line: ELISA.
In experiment [3] the target is human α-syn oligomers (ND Biosciences) (Homo sapiens (Human).) (UniProt P37840). Kind of experiment: microfluidic diffusional sizing.
For experiment [4], the target named is Full length, human α-synuclein, recombinant monomer (Homo sapiens (Human).) (UniProt P37840). The experiment in a line: microfluidic diffusional sizing.

For “Full length, human α-synuclein, recombinant monomer (from UniProt P37840 1-140) (natural protein)”, in the experiment with Cinpanemab (BIIB-054), the pKd was less than 7.00.

As to “Lu AF82422 (amlenetug), monospecific wild type human IgG1 (antibody)”, the results for the pEC50 in experiment [1] and in experiment [2] were 9.80 and 10.05, respectively. The results for the pKd in experiment [3] and in experiment [4] were 9.52 and 7.92, respectively.
